The record followed here is patent publication US20150025225A1 (SHIONOGI, published 2015).

The target of assay [1] is T1, human EL-411-459 fragment (human).
T1 construct: Used as HEK293 lysate
T1 chain: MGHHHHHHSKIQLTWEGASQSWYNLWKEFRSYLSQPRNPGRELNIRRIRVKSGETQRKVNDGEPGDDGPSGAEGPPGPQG
The experiment in a line: sandwich ELISA with human EL fragment lysate, as Example 10.

A further assay deals with T2, human EL-C2 tag (human, UniProt Q9Y5X9 21-500).
T2 sequence: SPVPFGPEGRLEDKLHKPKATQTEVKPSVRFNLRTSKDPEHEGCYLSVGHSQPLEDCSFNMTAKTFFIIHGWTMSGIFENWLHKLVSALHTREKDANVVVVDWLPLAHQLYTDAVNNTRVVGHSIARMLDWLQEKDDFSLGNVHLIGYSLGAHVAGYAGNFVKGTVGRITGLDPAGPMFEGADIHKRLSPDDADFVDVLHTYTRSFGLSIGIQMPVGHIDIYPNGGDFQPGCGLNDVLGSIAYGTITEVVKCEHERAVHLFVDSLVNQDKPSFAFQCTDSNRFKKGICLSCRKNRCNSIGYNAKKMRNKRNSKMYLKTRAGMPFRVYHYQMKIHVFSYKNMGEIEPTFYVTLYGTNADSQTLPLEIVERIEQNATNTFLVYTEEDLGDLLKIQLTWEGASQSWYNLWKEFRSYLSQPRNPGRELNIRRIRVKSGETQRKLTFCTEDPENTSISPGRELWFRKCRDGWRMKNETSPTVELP
The assay is described as follows: cell-based or functional assay.

For another assay, the target named is T3, mouse EL-C2 tag (mouse, UniProt Q9WVG5 21-500).
T3 construct: used as heparin extract of transfected HEK293F cells
T3 sequence: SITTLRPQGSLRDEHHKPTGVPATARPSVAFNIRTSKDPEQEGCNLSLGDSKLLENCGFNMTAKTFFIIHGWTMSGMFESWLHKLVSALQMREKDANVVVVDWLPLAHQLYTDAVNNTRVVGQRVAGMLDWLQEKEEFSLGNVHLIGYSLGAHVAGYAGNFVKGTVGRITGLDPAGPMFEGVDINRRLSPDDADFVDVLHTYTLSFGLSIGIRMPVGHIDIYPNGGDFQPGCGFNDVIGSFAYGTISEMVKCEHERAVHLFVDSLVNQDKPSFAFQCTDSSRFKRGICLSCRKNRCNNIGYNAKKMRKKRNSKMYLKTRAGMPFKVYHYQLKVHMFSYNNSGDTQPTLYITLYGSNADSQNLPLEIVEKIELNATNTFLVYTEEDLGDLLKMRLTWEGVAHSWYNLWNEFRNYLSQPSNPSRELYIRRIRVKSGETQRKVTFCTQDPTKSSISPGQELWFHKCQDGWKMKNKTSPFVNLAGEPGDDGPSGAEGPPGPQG
The experiment in a line: ELISA-type titration, A450 against antibody concentration; protocol not described in the text. Background: An ELISA detects its analyte on a solid surface through an enzyme-linked reagent.

Assay [2] has as its target T4, human EL[331-459]-mouse EL-C2 tag (human/mouse chimera, UniProt Q9WVG5 21-500 (mouse entry)).
T4 construct: used as heparin extract of transfected HEK293F cells; also called human-mouse chimera EL; Human-Mouse chimeric EL
T4 chain: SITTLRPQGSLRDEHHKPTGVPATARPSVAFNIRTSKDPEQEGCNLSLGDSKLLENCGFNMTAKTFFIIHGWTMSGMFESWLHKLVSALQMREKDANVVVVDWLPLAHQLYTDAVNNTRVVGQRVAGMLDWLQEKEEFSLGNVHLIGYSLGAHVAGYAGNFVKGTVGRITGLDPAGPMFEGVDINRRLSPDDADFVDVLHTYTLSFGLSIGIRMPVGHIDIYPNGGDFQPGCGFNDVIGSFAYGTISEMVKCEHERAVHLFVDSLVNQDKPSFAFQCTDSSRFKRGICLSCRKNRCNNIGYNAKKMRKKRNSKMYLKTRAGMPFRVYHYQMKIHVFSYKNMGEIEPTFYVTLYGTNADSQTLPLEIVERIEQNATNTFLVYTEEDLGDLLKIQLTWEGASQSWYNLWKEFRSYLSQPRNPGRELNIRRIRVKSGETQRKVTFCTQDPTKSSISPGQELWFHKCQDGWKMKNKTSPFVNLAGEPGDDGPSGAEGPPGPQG
The assay is described as above.

For assay [3], the target named is T5, human EL-411-500 fragment (human).
T5 construct: Used as HEK293 lysate
T5 chain: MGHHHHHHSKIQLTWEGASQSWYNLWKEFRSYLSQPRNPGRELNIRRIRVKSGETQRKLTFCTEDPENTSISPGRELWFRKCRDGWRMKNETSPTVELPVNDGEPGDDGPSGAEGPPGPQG
The assay is described as follows: sandwich ELISA: 12B10 (5 ug/mL) captured on anti-mouse IgG-Fc plate, serial dilutions of fragment lysate, detection with biotin anti-C2-tag Fab and HRP-streptavidin, A450. How it is done:
(§1) Assay buffer containing 15 μl of 12B10 antibody (5 μg/mL) was added to immobilized plate of anti-mouse IgG-Fc antibody and incubated for 2 hr. […] After washing the wells three times with 90 μl of washing buffer, 15 μL of assay buffer containing biotin-labeled anti-C2-tag (Fab) antibody and HRP-labeled Streptavidin (Thermo scientific) were added to the wells and incubated at room temperature for 1 hr. After washing the wells three times with 90 μl of washing buffer, 15 μL of TMB+-Substrate-Chromogen (DAKO) was added and incubated at room temperature for 30 min. The reaction was stopped with adding 15 μL of 0.05M H₂SO₄ and then measured absorbance 450 nm.

Assay [4] addresses T1, human EL-411-459 fragment. The description is as above. How it is done:
as §1

B1: 47B2 antibody (antibody, IgG2a, V domains shown)
VH: QVALKESGPGILQPSQTLSLTCSFSGFSLSTSGMGVGWIRQPSGKGLEWLAHIWWHGNKYYSTGLKSRLTISKDTSNNQVFLKIASVDTADTATYYCARISAGYPLDYWGQGTSVTVSS
VL: DIQMTQSPSSLSASLGGKVTITCKASQDINKYIVWYQHKPGKGPRLLIHYTSTLQPGFPSRFSGSGSGRDYSLSITNLEPEDIATYYCLQYDNLLWTFGGGTKLEIK
Take B1: the binding result in assay [1] is reported as “binds”.

B2: 12B10 antibody (antibody, IgG2a, V domains shown)
VH: QVTLKESGPGILKPSQTLSLTCSFSGFSLSTSGMGVGWIRQPSGKGLEWLAHIWWNDEKYYNPSLKSQLTISKDTSRNQVFLKITSVDTADTATYYCARSYDGSPFPSWGQGTLVTVSA
VL: DIQMTQSPSSLSASLGGKVTITCKASQDINKYIAWFQHKPGKGPRLLMAYPFTLQPGIPSRFSGNGSGRDYSFSISNLEPEDIATYYCLQYDNLLWTFGGGTRLEIK
A word on the EC50 (read off the curve): it is the concentration giving half of the maximal effect. Low values mean higher potency in that assay, high ones lower potency in that assay. With B2, the “IC50 of EL enzyme activity (NEFA release from HDL)” value with human EL-C2 tag came to 47 nM. Further, the binding result in the assay with mouse EL-C2 tag is “no binding”; in assay [3], “binds”; in assay [4] it was “binds”. Besides, the concentration for a half-maximal effect (EC50 (read off the curve)) in assay [2] is around 0.04 µg/mL.
